# Results reported in US20250154240A1 (CHIOME BIOSCIENCE, published 2025).
# T1: human CXCL1 protein (human, UniProt P09341 35-107)
# T1 construct: also called HuCXCL1
# T1 sequence: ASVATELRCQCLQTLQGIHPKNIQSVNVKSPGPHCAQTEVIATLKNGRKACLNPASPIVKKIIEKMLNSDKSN
# Biological target: T1, human CXCL1 protein
# Test: antigen-immobilized ELISA
row,binding result,Binder
1,binds,"mh4A-2F7 VH/VL2 (antibody, V domains shown) VH: QVTLKESGPGILKPSQTLSLTCSFSGFSLSTSGMGVDWIRQPSGKGLEWLAHIWWDDDKYYNPSLKSQLTISKDTSRNQVFLKITSVDTADTATYYCARSYGYDMDYYAMDYWGQGTSVTVSS VL: DIQMTQSPSSLSASLGERVSLTCRASQEISGYLSWLQQKPDGTIKRLIYAASTLESGVPKRFSGSRSGSDYSLTISSLESEDFADYYCLQYASYPPWTFGGGTKLEIK"
2,binds,"mh4A-2F7 VH/VL3 (antibody, V domains shown) VH: QVTLKESGPGILKPSQTLSLTCSFSGFSLSTSGMGVDWIRQPSGKGLEWLAHIWWDDDKYYNPSLKSQLTISKDTSRNQVFLKITSVDTADTATYYCARSYGYDMDYYAMDYWGQGTSVTVSS VL: DIQMTQSPSSLSASLGERVSLTCRASQEISGYLSWLQQKPDGTIKRLIYAASTLDAGVPKRFSGSRSGSDYSLTISSLESEDFADYYCLQYASYPPWTFGGGTKLEIK"
3,binds,"mh5A-5E11 VH1/VL (antibody, V domains shown) VH: QVQLQQSGAELVRPGSSVKISCKASGYAFSDYWMNWVKQRPGQGLEWIGQIYPGSGDTNYNGKFKGKGTLTADKSSSTAYMQLNSLTSEDSAVYFCARERDYDVAMDYWGQGTSVTVSS VL: DIQMTQSPSSLSASLGGKVTITCKASQDINKYIAWFQHKPGKGPRLVIHYTSILQPGIPSRFSGVGSGRDYSFSIRNLEPEDIATYYCLQYDNLPWTFGGGTKLEIK"
4,binds,"mh5A-5E11 VH10/VL (antibody, V domains shown) VH: QVQLQQSGAELVRPGSSVKISCKASGYAFSDYWMNWVKQRPGQGLEWIGQIYPGDADTNYSGKFKGKGTLTADKSSSTAYMQLNSLTSEDSAVYFCARERDYDVAMDYWGQGTSVTVSS VL: DIQMTQSPSSLSASLGGKVTITCKASQDINKYIAWFQHKPGKGPRLVIHYTSILQPGIPSRFSGVGSGRDYSFSIRNLEPEDIATYYCLQYDNLPWTFGGGTKLEIK"
5,binds,"mh5A-5E11 VH8/VL (antibody, V domains shown) VH: QVQLQQSGAELVRPGSSVKISCKASGYAFSDYWMNWVKQRPGQGLEWIGQIYPGEGDTNYSGKFKGKGTLTADKSSSTAYMQLNSLTSEDSAVYFCARERDYDVAMDYWGQGTSVTVSS VL: DIQMTQSPSSLSASLGGKVTITCKASQDINKYIAWFQHKPGKGPRLVIHYTSILQPGIPSRFSGVGSGRDYSFSIRNLEPEDIATYYCLQYDNLPWTFGGGTKLEIK"
6,binds,"mh5A-5E11 VH11/VL (antibody, V domains shown) VH: QVQLQQSGAELVRPGSSVKISCKASGYAFSDYWMNWVKQRPGQGLEWIGQIYPGDADTNYNAKFKGKGTLTADKSSSTAYMQLNSLTSEDSAVYFCARERDYDVAMDYWGQGTSVTVSS VL: DIQMTQSPSSLSASLGGKVTITCKASQDINKYIAWFQHKPGKGPRLVIHYTSILQPGIPSRFSGVGSGRDYSFSIRNLEPEDIATYYCLQYDNLPWTFGGGTKLEIK"
7,binds,"mh5A-5E11 VH4/VL (antibody, V domains shown) VH: QVQLQQSGAELVRPGSSVKISCKASGYAFSDYWMNWVKQRPGQGLEWIGQIYPGDGDTNYSGKFKGKGTLTADKSSSTAYMQLNSLTSEDSAVYFCARERDYDVAMDYWGQGTSVTVSS VL: DIQMTQSPSSLSASLGGKVTITCKASQDINKYIAWFQHKPGKGPRLVIHYTSILQPGIPSRFSGVGSGRDYSFSIRNLEPEDIATYYCLQYDNLPWTFGGGTKLEIK"
8,binds,"mh5A-5E11 VH5/VL (antibody, V domains shown) VH: QVQLQQSGAELVRPGSSVKISCKASGYAFSDYWMNWVKQRPGQGLEWIGQIYPGDGDTNYNAKFKGKGTLTADKSSSTAYMQLNSLTSEDSAVYFCARERDYDVAMDYWGQGTSVTVSS VL: DIQMTQSPSSLSASLGGKVTITCKASQDINKYIAWFQHKPGKGPRLVIHYTSILQPGIPSRFSGVGSGRDYSFSIRNLEPEDIATYYCLQYDNLPWTFGGGTKLEIK"
9,binds,"mh5A-5E11 VH9/VL (antibody, V domains shown) VH: QVQLQQSGAELVRPGSSVKISCKASGYAFSDYWMNWVKQRPGQGLEWIGQIYPGEGDTNYNAKFKGKGTLTADKSSSTAYMQLNSLTSEDSAVYFCARERDYDVAMDYWGQGTSVTVSS VL: DIQMTQSPSSLSASLGGKVTITCKASQDINKYIAWFQHKPGKGPRLVIHYTSILQPGIPSRFSGVGSGRDYSFSIRNLEPEDIATYYCLQYDNLPWTFGGGTKLEIK"
10,binds,"mh5A-5E11 VH3/VL (antibody, V domains shown) VH: QVQLQQSGAELVRPGSSVKISCKASGYAFSDYWMNWVKQRPGQGLEWIGQIYPGDADTNYNGKFKGKGTLTADKSSSTAYMQLNSLTSEDSAVYFCARERDYDVAMDYWGQGTSVTVSS VL: DIQMTQSPSSLSASLGGKVTITCKASQDINKYIAWFQHKPGKGPRLVIHYTSILQPGIPSRFSGVGSGRDYSFSIRNLEPEDIATYYCLQYDNLPWTFGGGTKLEIK"
11,binds,"mh5A-5E11 VH2/VL (antibody, V domains shown) VH: QVQLQQSGAELVRPGSSVKISCKASGYAFSDYWMNWVKQRPGQGLEWIGQIYPGEGDTNYNGKFKGKGTLTADKSSSTAYMQLNSLTSEDSAVYFCARERDYDVAMDYWGQGTSVTVSS VL: DIQMTQSPSSLSASLGGKVTITCKASQDINKYIAWFQHKPGKGPRLVIHYTSILQPGIPSRFSGVGSGRDYSFSIRNLEPEDIATYYCLQYDNLPWTFGGGTKLEIK"
12,binds,"mh5A-5E11 VH6/VL (antibody, V domains shown) VH: QVQLQQSGAELVRPGSSVKISCKASGYAFSDYWMNWVKQRPGQGLEWIGQIYPGSGDTNYSGKFKGKGTLTADKSSSTAYMQLNSLTSEDSAVYFCARERDYDVAMDYWGQGTSVTVSS VL: DIQMTQSPSSLSASLGGKVTITCKASQDINKYIAWFQHKPGKGPRLVIHYTSILQPGIPSRFSGVGSGRDYSFSIRNLEPEDIATYYCLQYDNLPWTFGGGTKLEIK"
13,binds,"028-8-12 VH1/VL (antibody, V domains shown, Amino acid-modified human antibody) VH: EVQLLESGGGLVQPGGSLRLSCAASGFTFSELSMSWVRQAPGKGLEWVSAISGSGGSTYYASSVKGRFTISRDNSKNTLYLQMNSLRAEDTAVYYCAREGGRLEPYYYYYAMDVWGQGTPVTVSS VL: DIQMTQSPSSLSASVGDRVTITCRASQSISDNLHWYQQKPGKAPKLLIYDASNLESGVPSRFSGSGSGTDFTLTINSLQPEDFATYYCQQYYSTPLTFGQGTKLEIK"
14,binds,"028-8-12 VH2/VL (antibody, V domains shown, Amino acid-modified human antibody) VH: not shown VL: DIQMTQSPSSLSASVGDRVTITCRASQSISDNLHWYQQKPGKAPKLLIYDASNLESGVPSRFSGSGSGTDFTLTINSLQPEDFATYYCQQYYSTPLTFGQGTKLEIK"
15,binds,"028-8-12 VH2/VL1 (antibody, V domains shown, Amino acid-modified human antibody) VH: not shown VL: DIQMTQSPSSLSASVGDRVTITCRASQSISDNLHWYQQKPGKAPKLLIYDASNLESGVPSRFSGSGSGTDFTLTISSLQPEDFATYYCQQYYSTPLTFGQGTKLEIK"
16,binds,"028-8-12 VH/VL1 (antibody, V domains shown, Amino acid-modified human antibody) VH: EVQLLESGGGLVQPGGSLRLSCAASGFTFSELSMSWVRQAPGKGLEWVSAISGSGGSTYYADSVKGRFTISRDNSKNTLYLQMNSLRAEDTAVYYCAREGGRLEPYYYYYAMDVWGQGTPVTVSS VL: DIQMTQSPSSLSASVGDRVTITCRASQSISDNLHWYQQKPGKAPKLLIYDASNLESGVPSRFSGSGSGTDFTLTISSLQPEDFATYYCQQYYSTPLTFGQGTKLEIK"
